Holding throughout (assay): BLI
The target of assay [1] is S1.
For a further assay, the target named is S1-biotin(ACRO).
The target of assay [2] is S1. This is another data set of the same source.
In assay [3] the target is S1. The source holds these as a separate data set.
Assay [4] concerns the target S1. This is another data set of the same source.

In US20240409617A1 (published 2024) one finds Kd data, which are given here for eight molecules.

Changes are numbered by the printed parent chain. Read-outs that look alike come from different tables or passages of the source.

B1: Ab 30 (Fc fusion)
VH: QVQLVQSGGGVVQPGKSLRLSCTASGFTFSDFPIHWVRQAPGKGLEWVGVISYDGNIKYYGDSVKGRFTISRDNAKNSLYLQMNSLRVEDTAVYYCARGGSSFDIWGQGTTVTVSS
VL: SYELTQPPSVSEAPRQRVTISCSGSTSNIGNNAVSWYQHLPGKAPKLLIYYNERLPSGVSDRFSGSKSGTSASLAISGLRSEDEADYYCAAWDDSLSGHVVFGGGTKLTVL
One may read the Kd as the equilibrium constant for the complex coming apart. Low values mean tighter binding, high ones weaker binding. In the case of B1, in the assay with S1 [1], the dissociation constant (Kd) was 0.314 nM.

B2: Ab 5 (Fc fusion)
VH: QVQLVQSGGGVVQPGRSLRLSCAASGFTFTTYGMHWVRQAPGKGLEWVAVISYDGSIKNYADFVEGRFTISRDNSKNTLYLQMNSLRPEDTGVYYCARVGDSSSYYGIDAWGQGTLVTVSS
VL: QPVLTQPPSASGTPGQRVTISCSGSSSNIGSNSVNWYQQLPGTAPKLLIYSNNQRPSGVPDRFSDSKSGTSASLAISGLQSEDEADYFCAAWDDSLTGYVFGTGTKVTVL
Take B2: the Kd with S1 [1] was < 0.001 nM.

B3: Ab 15 (Fc fusion)
VH: QVQLVQSGGGLVKPGRSLRLSCTASGFTFGDYAMSWFRQAPGKGLEWVGFIRSKAYGGTTGYAASVKGRFTISRDDSKSIAYLQMNSLKTEDTAVYYCTTADDDMDVWGKGTTVTVSS
VL: NFMLTQPHSVSESPGKTVTISCTRSSGTIASNYVQWYQQRPGSAPTTVIYEDNQRPSGVPDRFSGSIDRSSNSASLTISGLTPDDEADYYCQSYDTSNHYVFGTGTKVTVL
Take B3: the Kd with S1-biotin(ACRO) and with S1 [1] was 0.033 nM throughout.

B4: Ab 27 (Fc fusion)
VH: QVQLVQSGTEVKKPGASVKVSCKASGYSFTGSHLHWVRQAPGQGLEWMGWINPDSGVINYAQKFQGRVTLTRDTSISTAYMELSGLRSDDTAVYYCARDKAIGYVWALDYWGQGTLVTVSS
VL: QSALTQPPSVSGSPGQSVTISCTGTSSDVGTYNRVSWYQQPPGKAPKLMIYEVSNRPSGVSNRFSGSKSGNTASLTISGLQAEDEADYYCSSYTRTFTYVFGTGTKVTVL
On to B4, for which the Kd in the assay with S1-biotin(ACRO) and in the assay with S1 [1] was < 0.001 nM in each case.

B5: Ab 23 (Fc fusion)
VH: EVQLVQSGAEVKKPGSSVKVSCRSSGGTFSTYGITWVRQAPGQGLEWMGRIIPSLGIPNYAQKFQGRVTITADTSVSTAWMELSSLESDDTAIYYCARENIDLATNDFWGQGTLVTVSS
VL: QSALTQPPSASGSPGQSVTISCTGTSRDIGAYGYVSWYQQVPGKAPKLIIYEVRNRPSGVSSRFSGSKSGNTASLTISGLQAEDEADYYCSSYTSSSTLDVVFGGGTKLTVL
As to B5, the dissociation constant (Kd) with S1-biotin(ACRO) and with S1 [1] was 0.338 nM throughout.

B6: Ab 25 (Fc fusion)
VH: QVQLVQSGGGLVQPGGSLRLSCAASGFTFSSYWMSWVRQAPGKGLEWVANIKQDGSEKYYVDSVKGRFTISRDNAKNSLYLQMNSLRAEDTAVYYCARGFYYYGAFDIWGQGTTVTVSS
VL: NFMLTQPHSVSESPGKTVTISCTGSSGSIASNYVQWYQQRPGSAPTTVIYEDNQRPSGVPDRFSGSIGSSSNSASLTISGLKTEDEADYYCQSYDSSNHWVFGGGTKLTVL
As for B6, the Kd with S1-biotin(ACRO) and with S1 [1] was 10.1 nM each time.

B7: Ab 2-7 (Fc fusion)
chain 1: QVTLKESGPTRVKPTQTLTLTCTFSGFSLSTTGVGVGWIRQPPGKALEWLALIYWNDDKRYSPSLKSRLTITKDTSKNQVVLTMTNMDPVDTATYYCARISGSGYFYPFDIWGQGTTVTVSS
chain 2: B6 VL with G24R, A44S, G68D, T83A, N98S, H99L
For B7, the Kd in the assay with S1 [2] and with S1 [1] was < 0.001 nM in each case.

B8: Ab set2-7 (Fc fusion)
chain 1: B7 chain 1
chain 2: B6 VL with G24R, A44S, G68D, T83A, N98S, H99L
Turning to B8, the Kd with S1 [3] and with S1 [4] was < 0.001 nM throughout.
